Reference: patent US6942981
Ends that are not written are not given here. * marks the point of attachment. Biotin = O=C1N[C@H]2[C@H](CS[C@H]2CCCCC(=O)*)N1

Target: GST-DLG1 PDZ domains 1-2 fusion protein (human) (UniProt Q12959)
Assay: G assay titration of biotinylated peptide on immobilized GST-PDZ, saturation fit (apparent affinity)

Row | Kd | Binder
1 | 54 µM | Biotin-KDITSDSENSNFRNEIQSLV [CD95 (Apo-1/Fas) C-terminal peptide AA13L]
2 | 21 µM | Biotin-ISGTPTSTMVHGMTSSSSVV [CLASP-2 C-terminal peptide AA2L]
